Target: T1, PUB domain of peptide:N-glycanase (UniProt Q9JI78 1-119)
T1 construct: PUB domain of peptide:N-glycanase (PNGase); molecular weight 12.5 kDa as printed in the methods; PDB 2D5U is, as I recall, the mouse protein; The supplement's 1.34 mg/mL for 100 µM implies 13.4 kDa, not the 12.5 kDa of the methods; also called PNGase-PUB; component B; source: purified, dialyzed in 10 mM sodium phosphate buffer (pH 7.0) or PBS
T1 sequence: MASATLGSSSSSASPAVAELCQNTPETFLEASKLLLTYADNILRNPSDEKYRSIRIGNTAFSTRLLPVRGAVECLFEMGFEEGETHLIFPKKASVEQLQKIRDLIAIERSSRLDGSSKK
Test: AUC; sedimentation equilibrium (SE-AUC) of the mixture in 10 mM sodium phosphate buffer (pH 7.0), 25 °C; [hHR23b-UBL] = [PNGase-PUB] = 100, 75 and 50 µM; 20000, 30000 and 35000 rpm; absorbance optics; global fit with the association-dissociation equilibrium model A + B = AB (eq. 7, SEDPHAT)
Conditions: both partners purified

B1: ubiquitin-like domain of the proteasome shuttle factor hHR23b (domain or fragment)
chain: not shown
notes: ubiquitin-like (UBL) domain of hHR23b; molecular weight 9.5 kDa as printed; also called hHR23b-UBL; component A; source: purified, dialyzed in 10 mM sodium phosphate buffer (pH 7.0) or PBS
- Kd: 227 ± 28 µM

Source: article PMC7280208, “Integral approach to biomacromolecular structure by analytical-ultracentrifugation and small-angle scattering” (Communications Biology, 2020)
